Results as given in patent US20230057012A1 (SCHOLAR ROCK, published 2023).

Experiments:
[1] = molecular target: T1, human LRRC33-proTGFβ1 complex (human, UniProt Q86YC3 19-650; P01137 30-390, limits assumed); test: SPR Biacore; Fab
T1 construct: Purified recombinant, biotinylated antigen complex; also called hLRRC33-proTGFβ1; LLC
Experimental: (§1) Surface plasmon resonance (SPR) was used to measure binding kinetics using a BIACORE® system. […] Experiments were carried out with eight types of LLCs, namely, hLTBP1-proTGFβ1, mLTBP1-proTGFβ1, hLTBP3-proTGFβ1, mLTBP3-proTGFβ1, hGARP-proTGFβ1, mGARP-proTGFβ1, hLRRC33-proTGFβ1 and mLRRC33-proTGFβ1.
(§2) A BIACORE® system was employed to determine the monovalent binding affinity and the kinetic parameters for antigen binding of test antibodies. The binding kinetics were evaluated by surface plasmon resonance using Biacore 8K (GE Healthcare). A Biotin CAP sensor chip was used to capture the biotinylated antigens. […] Multi-cycle kinetics was employed where each analyte concentration was injected in a separate cycle and the sensor chip surface was regenerated after each cycle. All the assays were carried out in freshly prepared 1× HBS-EP+ buffer (10 mM HEPES, 150 mM NaCl, 3 mM EDTA, 0.05% Tween20, pH 7.4). Data for all the analyte concentrations for each interaction were fit globally to a 1:1 binding model to obtain the kinetic parameters. The Sensorgram for 0 nM analyte concentration was used as reference.

[2] = molecular target: T2, murine LRRC33-proTGFβ1 complex (mouse; human, UniProt Q8BMT4 20-651, limits assumed); test: SPR Biacore; Fab
T2 construct: As for m5; also called mLRRC33-proTGFβ1; LLC
Experimental: as §1, §2

[3] = molecular target: T3, murine GARP-proTGFβ1 complex (mouse; human, UniProt G3XA59 18-628; P01137 30-390, limits assumed); test: ELISA, purified hIgG4 titrated from about 0.002 to 100 nM, readout RLU, panel mGARP-TGFb1
T3 construct: As for m5; also called mGARP-proTGFβ1; LLC

[4] = molecular target: T4, human LTBP3-proTGFβ1 complex (human, UniProt Q9NS15 44-1303; P01137 30-390, limits assumed); test: ELISA, purified hIgG4 titrated from about 0.002 to 100 nM, readout RLU, panel hLTBP3-TGFb1
T4 construct: Purified recombinant, biotinylated antigen complex; also called hLTBP3-proTGFβ1; LLC

[5] = molecular target: T5, human LTBP1-proTGFβ1 complex (human, UniProt Q14766 347-1721; P01137 30-390, limits assumed); test: ELISA, purified hIgG4 titrated from about 0.002 to 100 nM, readout RLU, panel hLTBP1-TGFb1
T5 construct: also called hLTBP1-proTGFβ1; large latent complex (LLC)

[6] = molecular target: T6, murine LTBP3-proTGFβ1 complex (mouse; human, UniProt Q61810 41-1245; P01137 30-390, limits assumed); test: ELISA, purified hIgG4 titrated from about 0.002 to 100 nM, readout RLU, panel mLTBP3-TGFb1
T6 construct: also called mLTBP3-proTGFβ1; LLC

[7] = molecular target: endogenous LTBP-proTGFβ1 of LN229 cells (human); test: cell-based or functional assay
[8] = molecular target: T7, human GARP-proTGFβ1 complex (human, UniProt Q14392 18-627; P01137 30-390, limits assumed); test: ELISA, purified hIgG4 titrated from about 0.002 to 100 nM, readout RLU, panel hGARP-TGFb1
T7 construct: Purified recombinant, biotinylated antigen complex; also called hGARP-proTGFβ1; LLC

[9] = molecular target: T8, murine LTBP1-proTGFβ1 complex (mouse; human, UniProt Q8CG19 339-1712; P01137 30-390, limits assumed); test: ELISA, purified hIgG4 titrated from about 0.002 to 100 nM, readout RLU, panel mLTBP1-TGFb1
T8 construct: also called mLTBP1-proTGFβ1; LLC

[10] = molecular target: T7, human GARP-proTGFβ1 complex; test: SPR Biacore; Fab
Experimental: as §1, §2

[11] = molecular target: T6, murine LTBP3-proTGFβ1 complex; test: SPR Biacore; Fab
Experimental: as §1, §2

[12] = molecular target: T8, murine LTBP1-proTGFβ1 complex; test: SPR Biacore; Fab
Experimental: as §1, §2

[13] = molecular target: T4, human LTBP3-proTGFβ1 complex; test: SPR Biacore; Fab
Experimental: as §1, §2

[14] = molecular target: T5, human LTBP1-proTGFβ1 complex; test: SPR Biacore; Fab
Experimental: as §1, §2

[15] = molecular target: T3, murine GARP-proTGFβ1 complex; test: SPR Biacore; Fab
Experimental: as §1, §2

[16] = molecular target: T5, human LTBP1-proTGFβ1 complex; test: SPR (Biacore), binding to Human LTBP1-ProTGFβ1, Fab at 0.625-10 nM
Experimental: as §2
Binding kinetics was evaluated by surface plasmon resonance using a BIACORE® 8K (GE) instrument. Biotinylated antigens were captured on a Biotin CAP chip and the Fab fragments of the antibodies were used as analytes. Sensorgrams for Fab binding at variable concentrations (0.6-10 nM) were globally fit to obtain the kinetic parameters.

T5 sequence (Q14766 347-1721 limits assumed, chain 1 of 2): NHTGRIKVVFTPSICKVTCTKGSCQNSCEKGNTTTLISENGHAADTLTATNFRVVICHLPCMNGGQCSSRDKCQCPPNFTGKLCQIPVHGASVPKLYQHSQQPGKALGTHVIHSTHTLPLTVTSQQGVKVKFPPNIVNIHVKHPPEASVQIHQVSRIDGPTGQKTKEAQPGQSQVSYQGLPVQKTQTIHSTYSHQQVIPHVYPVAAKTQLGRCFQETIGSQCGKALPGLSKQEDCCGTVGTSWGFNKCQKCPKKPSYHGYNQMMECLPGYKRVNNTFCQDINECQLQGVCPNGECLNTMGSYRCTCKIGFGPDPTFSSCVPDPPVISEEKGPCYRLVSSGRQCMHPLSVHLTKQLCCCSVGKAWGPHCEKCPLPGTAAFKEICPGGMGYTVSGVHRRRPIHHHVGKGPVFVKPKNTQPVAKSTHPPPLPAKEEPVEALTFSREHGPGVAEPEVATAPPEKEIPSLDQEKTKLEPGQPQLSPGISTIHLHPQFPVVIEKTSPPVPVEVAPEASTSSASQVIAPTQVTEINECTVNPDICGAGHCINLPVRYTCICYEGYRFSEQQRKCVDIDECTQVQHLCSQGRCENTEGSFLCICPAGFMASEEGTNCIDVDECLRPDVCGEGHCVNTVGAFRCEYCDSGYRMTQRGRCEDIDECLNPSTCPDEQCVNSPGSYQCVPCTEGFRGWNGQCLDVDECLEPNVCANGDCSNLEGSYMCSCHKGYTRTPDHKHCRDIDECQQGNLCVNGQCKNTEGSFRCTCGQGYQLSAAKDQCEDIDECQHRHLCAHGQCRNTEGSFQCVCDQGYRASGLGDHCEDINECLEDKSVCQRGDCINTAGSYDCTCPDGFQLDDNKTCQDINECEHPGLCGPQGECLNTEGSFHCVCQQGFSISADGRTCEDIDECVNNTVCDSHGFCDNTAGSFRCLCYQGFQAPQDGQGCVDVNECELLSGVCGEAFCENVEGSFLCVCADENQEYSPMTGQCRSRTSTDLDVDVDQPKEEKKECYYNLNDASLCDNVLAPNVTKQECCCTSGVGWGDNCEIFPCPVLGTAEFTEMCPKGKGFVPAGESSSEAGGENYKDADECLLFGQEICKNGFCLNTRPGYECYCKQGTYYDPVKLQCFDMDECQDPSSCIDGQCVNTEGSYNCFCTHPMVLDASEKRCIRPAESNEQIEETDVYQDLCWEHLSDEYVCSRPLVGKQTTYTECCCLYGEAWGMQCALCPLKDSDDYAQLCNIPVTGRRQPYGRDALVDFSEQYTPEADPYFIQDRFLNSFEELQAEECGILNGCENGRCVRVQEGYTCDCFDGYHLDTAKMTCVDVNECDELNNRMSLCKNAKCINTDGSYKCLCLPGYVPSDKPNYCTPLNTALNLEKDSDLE
T5 sequence (P01137 30-390 limits assumed, chain 2 of 2): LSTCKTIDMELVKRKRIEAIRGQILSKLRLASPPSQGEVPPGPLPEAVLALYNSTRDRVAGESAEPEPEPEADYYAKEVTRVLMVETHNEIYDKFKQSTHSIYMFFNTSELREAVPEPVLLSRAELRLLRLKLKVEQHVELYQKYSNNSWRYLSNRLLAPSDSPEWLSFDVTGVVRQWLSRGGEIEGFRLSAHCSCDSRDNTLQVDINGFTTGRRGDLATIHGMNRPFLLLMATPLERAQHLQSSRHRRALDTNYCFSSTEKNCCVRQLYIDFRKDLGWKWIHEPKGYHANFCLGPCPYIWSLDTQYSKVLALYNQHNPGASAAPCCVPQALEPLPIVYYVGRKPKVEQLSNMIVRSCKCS
T1 sequence (Q86YC3 19-650 limits assumed, chain 1 of 2): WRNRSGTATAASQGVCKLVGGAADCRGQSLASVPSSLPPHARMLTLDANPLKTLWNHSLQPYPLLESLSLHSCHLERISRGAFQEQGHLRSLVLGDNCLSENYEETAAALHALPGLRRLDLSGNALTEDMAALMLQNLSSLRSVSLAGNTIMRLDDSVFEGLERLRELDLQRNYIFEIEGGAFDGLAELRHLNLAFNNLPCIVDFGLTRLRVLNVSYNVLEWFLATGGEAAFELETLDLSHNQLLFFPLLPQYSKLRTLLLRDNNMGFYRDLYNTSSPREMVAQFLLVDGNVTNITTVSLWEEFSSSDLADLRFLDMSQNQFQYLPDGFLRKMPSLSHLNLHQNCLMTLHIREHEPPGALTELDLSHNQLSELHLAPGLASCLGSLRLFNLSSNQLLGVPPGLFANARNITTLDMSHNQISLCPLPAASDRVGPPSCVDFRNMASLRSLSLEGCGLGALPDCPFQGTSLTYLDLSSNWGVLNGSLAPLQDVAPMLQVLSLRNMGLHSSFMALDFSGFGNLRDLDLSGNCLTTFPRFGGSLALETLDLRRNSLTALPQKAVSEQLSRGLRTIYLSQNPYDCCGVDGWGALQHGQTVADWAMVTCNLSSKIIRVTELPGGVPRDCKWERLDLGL
T1 sequence (P01137 30-390 limits assumed, chain 2 of 2): as the sequence (P01137 30-390 limits assumed, chain 2 of 2) above
T2 sequence (Q8BMT4 20-651 limits assumed, chain 1 of 2): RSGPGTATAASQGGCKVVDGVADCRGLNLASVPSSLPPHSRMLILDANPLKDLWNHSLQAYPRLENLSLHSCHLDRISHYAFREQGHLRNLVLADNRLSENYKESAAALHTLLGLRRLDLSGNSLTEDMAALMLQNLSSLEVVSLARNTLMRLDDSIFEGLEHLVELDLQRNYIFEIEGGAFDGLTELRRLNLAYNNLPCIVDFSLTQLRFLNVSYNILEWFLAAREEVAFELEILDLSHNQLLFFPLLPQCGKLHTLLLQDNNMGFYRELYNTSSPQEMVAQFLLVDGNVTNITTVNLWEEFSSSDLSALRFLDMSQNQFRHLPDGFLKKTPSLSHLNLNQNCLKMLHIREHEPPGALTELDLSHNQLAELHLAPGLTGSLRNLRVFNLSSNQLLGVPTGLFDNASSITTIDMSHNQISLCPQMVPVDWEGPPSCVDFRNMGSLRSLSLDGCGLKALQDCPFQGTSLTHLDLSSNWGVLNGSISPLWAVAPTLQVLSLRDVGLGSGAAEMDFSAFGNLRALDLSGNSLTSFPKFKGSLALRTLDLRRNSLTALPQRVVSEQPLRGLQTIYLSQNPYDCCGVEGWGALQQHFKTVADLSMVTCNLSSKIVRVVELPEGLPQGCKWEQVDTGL
T2 sequence (chain, as listed by the source limits assumed, chain 2 of 2): as the sequence (P01137 30-390 limits assumed, chain 2 of 2) above
T7 sequence (Q14392 18-627 limits assumed, chain 1 of 2): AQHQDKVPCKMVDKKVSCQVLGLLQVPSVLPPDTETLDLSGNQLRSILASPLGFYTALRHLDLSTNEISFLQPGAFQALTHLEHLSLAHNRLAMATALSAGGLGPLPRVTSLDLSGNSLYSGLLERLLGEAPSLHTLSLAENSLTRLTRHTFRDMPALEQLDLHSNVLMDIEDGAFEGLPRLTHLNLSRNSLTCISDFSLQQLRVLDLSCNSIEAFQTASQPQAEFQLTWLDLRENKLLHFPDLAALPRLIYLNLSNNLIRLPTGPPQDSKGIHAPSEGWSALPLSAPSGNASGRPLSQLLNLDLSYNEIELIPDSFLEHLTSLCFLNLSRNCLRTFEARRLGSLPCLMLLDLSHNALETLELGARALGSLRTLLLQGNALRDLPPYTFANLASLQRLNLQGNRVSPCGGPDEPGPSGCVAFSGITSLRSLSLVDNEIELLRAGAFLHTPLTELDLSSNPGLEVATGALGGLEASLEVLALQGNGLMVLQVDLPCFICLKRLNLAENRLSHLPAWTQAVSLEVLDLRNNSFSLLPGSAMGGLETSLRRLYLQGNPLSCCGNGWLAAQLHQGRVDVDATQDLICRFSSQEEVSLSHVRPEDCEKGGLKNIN
T7 sequence (P01137 30-390 limits assumed, chain 2 of 2): as the sequence (P01137 30-390 limits assumed, chain 2 of 2) above
Chain of endogenous LTBP-proTGFβ1 of LN229 cells (human) (P01137 30-390): as the sequence (P01137 30-390 limits assumed, chain 2 of 2) above
T3 sequence (G3XA59 18-628 limits assumed, chain 1 of 2): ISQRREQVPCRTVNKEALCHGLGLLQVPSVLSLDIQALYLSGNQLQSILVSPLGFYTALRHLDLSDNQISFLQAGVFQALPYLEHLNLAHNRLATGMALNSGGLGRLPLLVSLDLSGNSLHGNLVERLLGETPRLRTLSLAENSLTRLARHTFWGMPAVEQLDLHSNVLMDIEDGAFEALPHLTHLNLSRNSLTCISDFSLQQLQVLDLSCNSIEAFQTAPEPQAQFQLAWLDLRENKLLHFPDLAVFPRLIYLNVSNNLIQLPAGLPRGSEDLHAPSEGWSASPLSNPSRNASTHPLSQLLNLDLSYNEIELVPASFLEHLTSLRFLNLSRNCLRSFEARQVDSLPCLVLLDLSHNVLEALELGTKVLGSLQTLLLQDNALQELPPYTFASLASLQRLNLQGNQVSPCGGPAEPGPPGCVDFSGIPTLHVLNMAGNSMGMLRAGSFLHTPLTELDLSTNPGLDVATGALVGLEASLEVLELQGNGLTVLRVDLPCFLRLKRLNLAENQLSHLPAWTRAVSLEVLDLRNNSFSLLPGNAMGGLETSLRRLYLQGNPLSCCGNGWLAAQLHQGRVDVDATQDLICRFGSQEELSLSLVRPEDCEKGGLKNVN
T3 sequence (P01137 30-390 limits assumed, chain 2 of 2): as the sequence (P01137 30-390 limits assumed, chain 2 of 2) above

B1: Ab42 Fab (Fab, V domains shown)
VH: QVQLVESGGGVVQPGRSLRLSCAASGFTFRSYVMHWVRQAPGKGLEWVAVISHEGSLKYYADSVKGRFTISRDNSKNTLYLQMNSLRAEDTAVYYCARPRIAARRGGFGYWGQGTLVTVSS
VL: NFMLTQPHSVSESPGKTVTISCTRSSGNIDNNYVQWYQQRPGSSPTTVIYEDNQRPSGVPDRFSGSIDSSSNSASLTISGLKTEDEADYYCQSYDYDTQGVVFGGGTKLTVL
In the case of B1, the “Fold difference (affinity relative to Ref)” value [1] is reported as 81 fold, the Kd [1] is reported as 123 pM and the koff [1] is reported as 0.000123 s⁻¹. For the same binder, the kon [1] was 1e+06 M⁻¹ s⁻¹, the “Fold difference (affinity relative to Ref)” value [2] was 74 fold and the Kd [2] was 114 pM. For the same binder, the koff [2] was 0.000123 s⁻¹ and the kon [2] was 1.08e+06 M⁻¹ s⁻¹.

B2: Ab46 hIgG4 (antibody, V domains shown)
VH: EVQLLESGGGLVQPGGSLRLSCAASGFTFADYAMTWVRQAPGKGLEWVSAISGSGAATYFADSVKGRFTISRDNSKNTLYLQMNSLRAEDTAVYYCARVSSGHWDYDYWGQGTLVTVSS
VL: DIQLTQSPSSLSASVGDRVTITCRASQSISSYLNWYQQKPGKAPKLLIYAASGLESGVPSRFSGSGSGTDFTLTISSLQPEDFATYYCQQTYGVPLTFGGGTKVEIK
notes: hIgG4 immunoglobulin; also called Ab46 (mAb)
With B2 the “EC50 (read off the curve)” value [3] was roughly 200 pM, the “EC50 (read off the curve)” value [4] was roughly 200 pM and the “EC50 (read off the curve)” value [5] was roughly 300 pM. The “EC50 (read off the curve)” value [6] was roughly 200 pM, the “mAb IC50 (nM); cell-based potency assay” value [7] was 0.95 nM and the “EC50 (read off the curve)” value [8] was roughly 300 pM. The “EC50 (read off the curve)” value [9] was roughly 200 pM.

B3: Ab46 Fab (Fab, V domains shown)
VH: EVQLLESGGGLVQPGGSLRLSCAASGFTFADYAMTWVRQAPGKGLEWVSAISGSGAATYFADSVKGRFTISRDNSKNTLYLQMNSLRAEDTAVYYCARVSSGHWDYDYWGQGTLVTVSS
VL: DIQLTQSPSSLSASVGDRVTITCRASQSISSYLNWYQQKPGKAPKLLIYAASGLESGVPSRFSGSGSGTDFTLTISSLQPEDFATYYCQQTYGVPLTFGGGTKVEIK
notes: Fab fragment
For B3, the “Fold difference (affinity relative to Ref)” value [10] was 53 fold, the “Fold difference (affinity relative to Ref)” value [11] was 91 fold and the “Fold difference (affinity relative to Ref)” value [1] was 118 fold. For the same binder, the “Fold difference (affinity relative to Ref)” value [12] was 123 fold, the “Fold difference (affinity relative to Ref)” value [2] was 95 fold and the “Fold difference (affinity relative to Ref)” value [13] was 72 fold. The “Fold difference (affinity relative to Ref)” value [14] was 134 fold, the “Fold difference (affinity relative to Ref)” value [15] was 69 fold and the “t1/2” value [16] was 2.18 h. The “fAb IC50 (nM); cell-based potency assay” value [7] was 0.723 nM.
